T1: MOCS2B wild-type (large subunit of MPT synthase) (human, UniProt O96007 1-188)
T1 construct: MOCS2B, large subunit of molybdopterin (MPT) synthase, human; encoded by MOCS2 transcript variant 3 (NM_004531.5); Cloned into pET15b, a vector that can add an N-terminal His tag; also called MOCS2B WT; WT MOCS2B; source: Escherichia coli BL21 (pET15b), purified (ammonium sulfate precipitation, size exclusion chromatography on Superdex 200)
T1 sequence (looked up): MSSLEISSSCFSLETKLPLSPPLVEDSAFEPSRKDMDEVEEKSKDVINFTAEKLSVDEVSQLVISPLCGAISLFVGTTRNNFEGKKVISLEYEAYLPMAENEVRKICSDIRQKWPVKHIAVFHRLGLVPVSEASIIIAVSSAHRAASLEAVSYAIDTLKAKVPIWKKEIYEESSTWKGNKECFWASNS

T2: MOCS2B p.Leu19Phe variant (human, UniProt O96007 1-188, p.Leu19Phe)
T2 construct: MOCS2B, large subunit of molybdopterin (MPT) synthase, human, patient variant c.57A>T (NM_004531.5; p.Leu19Phe), rs776441627; Variant found in patients (natural variant); Cloned into pET15b; also called MOCS2B L19F; MOCS2B Leu19Phe; source: Escherichia coli BL21 (pET15b), purified (ammonium sulfate precipitation, size exclusion chromatography on Superdex 200)
T2 sequence (looked up): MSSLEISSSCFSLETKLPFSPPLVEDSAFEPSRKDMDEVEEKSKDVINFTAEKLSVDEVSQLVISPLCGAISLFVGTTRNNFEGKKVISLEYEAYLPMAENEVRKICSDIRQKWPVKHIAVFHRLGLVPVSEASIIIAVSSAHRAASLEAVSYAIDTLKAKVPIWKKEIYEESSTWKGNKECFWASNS


What was measured:
[1] = molecular target: T1, MOCS2B wild-type (large subunit of MPT …); experiment: ITC; VP-ITC; 20-50 uM MOCS2B in the sample cell (1.5 mL), 200-500 uM MOCS2A in the syringe; 10 mM Tris-HCl, 250 mM NaCl, pH 8.0; n = 3 experiments; conditions: both partners purified
[2] = molecular target: T2, MOCS2B p.Leu19Phe variant; experiment: as above; conditions: both partners purified
[3] = molecular target: T2, MOCS2B p.Leu19Phe variant; experiment: cell-based or functional assay

Binder	Kd [1] [µM]	stoichiometry N [1]	Kd [2] [µM]	in vitro MPT synthesis activity (500 pmol cPMP, 200 pmol MOCS2B, 0-500 pmol MOCS2A; HPLC Form A method), relative to WT MOCS2A/B [3]
MOCS2A wild-type (small subunit of MPT synthase) (natural protein, human, UniProt O96033 1-88, looked up, thiocarboxylated C-terminal tail, MOCS2A, small subunit of molybdopterin (MPT) synthase, human; encoded by MOCS2 transcript variant 1 (NM_176806.4); also called MOCS2A WT; WT MOCS2A) MVPLCQVEVLYFAKSAEITGVRSETISVPQEIKALQLWKEIETRHPGLADVRNQIIFAVRQEYVELGDQLLVLQPGDEIAVIPPISGG	0.359 ± 0.047	1.15 ± 0.2	0.114 ± 0.016	
MOCS2A p.Ile82Phe variant (natural protein, human, UniProt O96033 1-88, looked up, thiocarboxylated C-terminal tail, MOCS2A, small subunit of molybdopterin (MPT) synthase, human, patient variant c.244A>T (NM_176806.4; p.Ile82Phe), rs776441627; Variant found in patients (natural variant); also called MOCS2A I82F; MOCS2 p.Ile82Phe) MVPLCQVEVLYFAKSAEITGVRSETISVPQEIKALQLWKEIETRHPGLADVRNQIIFAVRQEYVELGDQLLVLQPGDEIAVFPPISGG	2.8 ± 0.3		7.4 ± 2.1	~20 % of WT

Source: publication PMC12289762, “A prevalent MOCS2 variant in the Roma population is associated with a novel mild form of molybdenum cofactor deficiency” (European Journal of Pediatrics, 2025)
